Measured values: US20230058519A1 (SHANGHAI CELL THERAPY GROUP, published 2023)

Legend:
BCMA-His antigen = target: T1, BCMA-His antigen (UniProt Q02223 1-54); test: SPR as in Example 2, BCMA-His antigen
T1 construct: also called BMCA antigen
T1 sequence (looked up): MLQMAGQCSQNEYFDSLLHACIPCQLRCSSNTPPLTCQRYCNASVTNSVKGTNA

BCMA expressed on cells = target: T2, BCMA expressed on cells (UniProt Q02223 1-184, limits assumed); test: flow cytometry on CHOK1-BCMA cells; unit taken from the axis 'Concentration (nM)'
T2 construct: whole, on cells; also called CHOK1-BCMA cell line; BCMA over-expression cell line
T2 sequence (looked up): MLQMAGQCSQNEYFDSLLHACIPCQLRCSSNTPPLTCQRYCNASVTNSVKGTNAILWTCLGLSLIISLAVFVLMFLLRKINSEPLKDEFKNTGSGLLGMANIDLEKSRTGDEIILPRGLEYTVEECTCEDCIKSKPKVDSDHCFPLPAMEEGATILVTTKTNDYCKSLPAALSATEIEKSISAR

[1] = target: mesothelin (MSLN) expressed on cells (UniProt Q13421); test: flow cytometry on 293T-MSLN-Full cells; unit taken from the axis 'Conc.(nM)'
EGFR expressed on cells [2] = target: T3, EGFR expressed on cells (UniProt P00533 25-1210, limits assumed); test: flow cytometry on 293T-EGFR cells; unit taken from the axis 'Conc.(nM)'
T3 construct: whole, on cells; also called HEK293T-EGFR cell line; EGFR over-expressing cells

EGFR expressed on cells [3] = target: T3, EGFR expressed on cells; test: flow cytometry on HEK293T-EGFR cells (cell line from paragraph 185); unit taken from the axis 'Concentration (nM)'
EGFR His antigen = EGFR His antigen (UniProt P00533 25-645); test: SPR as in Example 2, EGFR His antigen

Sequence of mesothelin (MSLN) expressed on cells (Q13421 other isoform, or with tags, fused parts or gaps limits assumed): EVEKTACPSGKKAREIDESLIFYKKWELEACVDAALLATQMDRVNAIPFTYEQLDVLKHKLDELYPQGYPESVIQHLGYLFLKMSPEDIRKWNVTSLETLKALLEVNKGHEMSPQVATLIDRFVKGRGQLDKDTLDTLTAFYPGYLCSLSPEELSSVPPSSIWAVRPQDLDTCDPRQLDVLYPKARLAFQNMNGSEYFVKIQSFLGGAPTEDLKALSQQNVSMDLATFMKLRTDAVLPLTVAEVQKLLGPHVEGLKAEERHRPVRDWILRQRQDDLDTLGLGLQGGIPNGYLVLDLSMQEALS

B1: B029(VHH), hFc fusion (Fc fusion)
chain: QVQLVESGGGLVQPGGSLRLSCAASGSITSIYAIGWYRQAPGKLRELVAAITTSGNTFYRDSVKGRFTISRDNAKNTVSLQMNSLKSEDTAVYDCNGAPWGDHAPLVVSWDQGTQVTVSS
notes: not shown: human Fc
B1 showed a Kd (BCMA-His antigen) of 0.125 nM, a koff (BCMA-His antigen) of 0.000365 s⁻¹ and a kon (BCMA-His antigen) of 2.92e+06 M⁻¹ s⁻¹. For the same binder, the EC50 (BCMA expressed on cells) was 1.68 nM.

B2: TCP021-P (bispecific antibody)
chain: QLQLGASGGGLVQPGGSLRLSCALSGFTLRELDEFAIGWFRQAPGKEREGVSCISGTGGITHYADSVKGRFTISRDIAKTTVYLQMNSLNSEDTAVYYCAADERCTDRLIRPPTYWGQGTQVTVSSGGGGSGGGGSGGGGSQVQLVESGGGLVQPGGSLNLSCAASGFDFSSVTMSWHRQSPGKERETVAVISNIGNRNVGSSVRGRFTISRDNKKQTVHLQMDNLKPEDTGIYRCKAWGLDLWGPGTQVTVSSGGGGSEQKLISEEDLGGGGSHHHHHH
notes: also called EGFR-TCP; anti-M-ICAP VHH (M2339) - 3xGGGGS linker - anti-EGFR VHH (E454(VHH)) - Myc and HIS
B2 was tested, and the EC50 [1] was 35.6 nM and the EC50 (EGFR expressed on cells [2]) was 28.6 nM.

B3: E454(VHH), hFc fusion (Fc fusion)
chain: QVQLVESGGGLVQPGGSLNLSCAASGFDFSSVTMSWHRQSPGKERETVAVISNIGNRNVGSSVRGRFTISRDNKKQTVHLQMDNLKPEDTGIYRCKAWGLDLWGPGTQVTVSS
notes: also called anti-EGFR VHH (E454(VHH)); not shown: human Fc
B3 gave an EC50 (EGFR expressed on cells [3]) of 6.51 nM, a Kd (EGFR His antigen) of 1.27 nM and a koff (EGFR His antigen) of 2.48e-05 s⁻¹. For the same binder, the kon (EGFR His antigen) was 19500 M⁻¹ s⁻¹.
